Laboratory results published in patent publication US20110165066A1 (AbbVie / Abbott, published 2011).

T1: mouse IL-13 (mouse, UniProt P20109 26-131, limits assumed)
T1 construct: also called mIL-13; murine IL-13
T1 sequence (looked up): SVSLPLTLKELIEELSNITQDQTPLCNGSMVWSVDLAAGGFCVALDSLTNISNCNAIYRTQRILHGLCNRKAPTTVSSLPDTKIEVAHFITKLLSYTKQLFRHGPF


How the values were obtained:
[1] = molecular target: T2, human IL-13 variant (R130Q) (human, UniProt P35225 35-146); assay: cell-based or functional assay
T2 sequence (P35225 35-146 limits assumed, stated change not applied): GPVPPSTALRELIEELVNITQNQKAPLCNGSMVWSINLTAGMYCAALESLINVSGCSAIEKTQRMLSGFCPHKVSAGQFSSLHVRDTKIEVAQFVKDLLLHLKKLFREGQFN

cynomolgus IL-13 = cynomolgus IL-13 (cynomolgus, UniProt Q0PW92 21-132); assay: cell-based or functional assay
cynomolgus IL-13, sequence (Q0PW92 entry or part of it): as the sequence (P35225 35-146 limits assumed, stated change not applied) above, with G1S, R10K, M42V, S67N, H83R, L100V counted along it

human IL-13 wild type [2] = molecular target: T3, human IL-13 wild type (human, UniProt P35225 35-146); assay: cell-based or functional assay
T3 sequence (P35225 other isoform, or with tags, fused parts or gaps limits assumed): as the sequence (P35225 35-146 limits assumed, stated change not applied) above, with Q110R counted along it

mouse IL-13 = molecular target: T1, mouse IL-13; assay: indirect ELISA, captured mAb, biotinylated mouse IL-13
Protocol: Murine anti-human IL-13 mAbs were prepared at various concentrations ranging from 0.1 to 100 ng/ml in PBS containing 0.1% BSA; 50 ul of each antibody dilution was added to the coated ELISA plate and incubated for 1 hour at room temperature. Wells were washed 3 times with PBS containing 0.05% Tween-20. […] Wells were washed 3 times with PBS containing 0.05% Tween-20. Streptavidin HRP (Pierce #21126, Rockland, Ill.) was diluted 1:20000 in PBS containing 0.1% BSA; […] was added and the plates incubated for 1 hour at room temperature. Plates were washed 3 times with PBS containing 0.05% Tween-20. Fifty microliters of TMB solution (Sigma # T0440, St. Louis, Mo.) was added to each well and incubated for 10 minutes at room temperature. The reaction was stopped by addition of 1N sulphuric acid. Plates were read spectrophotmetrically at a wavelength of 450 nm.

[3] = molecular target: T2, human IL-13 variant (R130Q); assay: SPR (Biacore), mAb captured, IL-13 as analyte
Protocol: (§1) The BIACORE assay (Biacore, Inc, Piscataway, N.J.) determines the affinity of antibodies with kinetic measurements of on-, off-rate constants. […] All chemicals were obtained from Biacore® AB (Uppsala, Sweden) or otherwise from a different source as described in the text. Approximately 5000 RU of goat anti-mouse IgG, (Fcγ), fragment specific polyclonal antibody (Pierce Biotechnology Inc, Rockford, Ill.) diluted in 10 mM sodium acetate (pH 4.5) was directly immobilized across a CM5 research grade biosensor chip using a standard amine coupling kit according to manufacturer's instructions and procedures at 25 μg/ml. Unreacted moieties on the biosensor surface were blocked with ethanolamine. Modified carboxymethyl dextran surface in flowcell 2 and 4 was used as a reaction surface. Unmodified carboxymethyl dextran without goat anti-mouse IgG in flow cell 1 and 3 was used as the reference surface. For kinetic analysis, rate equations derived from the 1:1 Langmuir binding model were fitted simultaneously to association and dissociation phases of all eight injections (using global fit analysis) with the use of Biaevaluation 4.0.1 software. Purified antibodies were diluted in HEPES-buffered saline for capture across goat anti-mouse IgG specific reaction surfaces. Mouse antibodies to be captured as a ligand (25 μg/ml) were injected over reaction matrices at a flow rate of 5 μl/min. The association and dissociation rate constants, kₒₙ (unit M⁻¹s⁻¹) and koff (unit s⁻¹) were determined under a continuous flow rate of 25 μl/min Rate constants were derived by making kinetic binding measurements at ten different antigen concentrations ranging from 10-200 nM. […] Binding is recorded as a function of time and kinetic rate constants are calculated.

human IL-13 wild type [4] = molecular target: T3, human IL-13 wild type; assay: SPR (Biacore), mAb captured, IL-13 as analyte
Protocol: as §1

| Average IC50, IL-13-induced TARC production by A-549 cells [1] | Average IC50, IL-13-induced TARC production by A-549 cells (cynomolgus IL-13) | Average IC50, IL-13-induced TARC production by A-549 cells (human IL-13 wild type [2]) | binding result (mouse IL-13) | Kd [3] | koff [3] | kon [3] | Kd (human IL-13 wild type [4]) | koff (human IL-13 wild type [4]) | kon (human IL-13 wild type [4]) | Binder |
| --- | --- | --- | --- | --- | --- | --- | --- | --- | --- | --- |
| 0.09 nM | 1.88 nM | 0.097 nM | no binding (tested: 0.1 to 100 ng/ml) | 0.0314 nM | 1.57e-05 s⁻¹ | 502000 M⁻¹ s⁻¹ | 0.0289 nM | 2.24e-05 s⁻¹ | 774000 M⁻¹ s⁻¹ | 5F1 (antibody, V domains shown) VH: QVQLQQSGAELARPGTSVKLSCKASGYTFTTYGISWVKQRTGQGLEWIGEIYPGSYNTYYNEKFRGKATLTADKSSSTAYMQLSSLTSEDSAVYFCSRWRTSYFSDYGYFDYWGQGTTLTVSS VL: DVVMTQTPLSLPVSLGDQASISCRSSQSLVHSHGNTYLHWYLQKPGQSPKLLIYTVSNRFSGVPDRFSGSGSGTDFTLKISRVEAEDLGVYFCSQSTHVPYTFGGGTKLEIKR |
| 0.048 nM | 0.612 nM | 0.076 nM | no binding (tested: 0.1 to 100 ng/ml) | 0.13 nM | 2.05e-05 s⁻¹ | 157000 M⁻¹ s⁻¹ | 0.00877 nM | 5.49e-06 s⁻¹ | 626000 M⁻¹ s⁻¹ | 5G1 (antibody, V domains shown) VH: QVQLQQSGAELARPGTSVKLSCKASGYTFTTYGVSWVKQRTGQGLEWIGEIYPGNYNTYYNEKFRGKATLTADKSSSTAYMQLSSLTSEDSAVYFCSRWRTSYFSDYGYFDYWGQGTTLTVSS VL: DVVMTQTPLSLPVSLGDQASISCRSSQSLVHSHGNTYLHWYLQKPGQSPKLLIYTVSNRFSGVPDRFSGSGSGTDFTLKISRVEAEDLGVYFCSQSTHVPYTFGGGTKLEIKR |
| 0.24 nM | 0.521 nM | 0.84 nM | no binding (tested: 0.1 to 100 ng/ml) | 0.21 nM | 0.000222 s⁻¹ | 1.06e+06 M⁻¹ s⁻¹ | 0.545 nM | 0.000518 s⁻¹ | 951000 M⁻¹ s⁻¹ | 1B6 (antibody, V domains shown) VH: QVQLKESGPGLVAPSQSLSITCTVSGFSLTGYGVNWVRQPPGKGLEWLGMIWGDERIDYNSALKSRLSITKDNSKSQVFLKMNSLQTDDTGRYFCARDGYFPYAMDYWGQGTSVTVSS VL: NIVLTQSPASLAVSLGQRATISCRASETVDSYGKSYLHWYQQKPGQPPKLLIYLASNLESGVPARFSGSGSRTDFTLIIDPVEADDAATYYCQQNNEGPRTFGGGTKLEIKR |
| 0.34 nM | 0.161 nM | 0.72 nM | no binding (tested: 0.1 to 100 ng/ml) | 0.403 nM | 0.000394 s⁻¹ | 978000 M⁻¹ s⁻¹ | 0.484 nM | 0.000702 s⁻¹ | 1.45e+06 M⁻¹ s⁻¹ | 6C8 (antibody, V domains shown) VH: QVQLKESGPGLVAPSQSLSITCTVSEFSLTGSSVNWVRQPPGKGLEWLGMIWGDGRIDYNSALKSRLSISKDNSKSQVFLKMNSLQTDDTARYYCARDGYYPYAMNYWGQGTSVTVSS VL: NIVLTQSPASLAVSLGQRATISCRASESVDSYGNSFMHWYQQKPGQPPKLLIYLASNLESGVPARFSGSGSRADFTLTIDPVEADDAATYYCQQNNENPRTFGGGTKLEIKR |
| 0.3 nM | 0.161 nM | 0.13 nM | no binding (tested: 0.1 to 100 ng/ml) | 0.253 nM | 0.000468 s⁻¹ | 1.85e+06 M⁻¹ s⁻¹ | 0.457 nM | 0.000658 s⁻¹ | 1.44e+06 M⁻¹ s⁻¹ | 3E5 (antibody, V domains shown) VH: QVQLKESGPGLVAPSQSLSITCTVSGFSLTGSSINWVRQPPGKGLEWLGMIWGDGRIDYNSVLKSRLSISKDSSKSQVFLKMNSLQADDTARYYCARDGYYPYAMVYWGQGTSVTVSS VL: NIVLTQSPASLAVSLGQRATIFCRASESVDSYGNSFMHWYQQKSGQPPKLLIYLASNLESGVPARFSGSGSRTDFTLTIDPVEADDAATFYCQQNNENPRTFGGGTKLEIKR |
| 0.48 nM | 0.395 nM |  | no binding (tested: 0.1 to 100 ng/ml) | 0.976 nM | 0.00096 s⁻¹ | 983000 M⁻¹ s⁻¹ | 0.523 nM | 0.000607 s⁻¹ | 1.16e+06 M⁻¹ s⁻¹ | 8B6 (antibody, V domains shown) VH: QVQLKESGPGLVAPSQSLSITCTVSGFSLTGHNINWVRQPPGKGLEWLGMIWGDGNTDFNSALKSRLSISKDNSKSQVFLKLNSLQTDDTARYYCARDGYYPYAIKFWGQGTSVTVSS VL: HIVLTQSPASLAVSLGQRATISCRASETVDSYGSSFLHWYQQKPGQPPKLLIYLASKLESGVPARFSGSGSRTDFTLTIDPVEADDAATYYCQQNNEGPRTFGGGSKLEIKR |
| 0.26 nM | 0.188 nM | 0.23 nM | no binding (tested: 0.1 to 100 ng/ml) | 0.0631 nM | 8.45e-06 s⁻¹ | 134000 M⁻¹ s⁻¹ | 0.0754 nM | 2.6e-05 s⁻¹ | 345000 M⁻¹ s⁻¹ | 25C8 (antibody, V domains shown) VH: QVQLQQPGAELVRPGASVQLSCKASGYTFTSSWIHWVNQRPGQGLEWIGMIHPSDSETRLNQKFKDKATLTVDKSSSTAYMQLSSPTSEDSAVYYCASTATDFDYWGQGTTLTVSS VL: DVVLTQTPLSLPVNIGDQASISCKSTKSLLNSDGFTYLDWYLQKPGQSPQLLIYLVSNRFSGAPDRFSGSGSGTDFTLKISRVEAEDLGVYYCFQHNYLPLTFGAGTNLELKR |
| 0.27 nM |  |  | no binding (tested: 0.1 to 100 ng/ml) | 0.157 nM |  |  | 0.089 nM |  |  | 4A8 (antibody, V domains shown) VH: EVQLQQSGAEFVRPGALVKLSCKASGFNIKDYYMYWVKQRPEQGLEWIGRIDPENGNTIYDPKFQGKASITGDTSSNTAYLQLSSLTSEDTAVYYCARYAYYGPFDYWGQGTTLTVSS VL: QAVVTQESALTTSPGETVTLTCRSSIGTVTTNNYANWVQEKPDHLFTGLIGSTNNRAPGVPARFSGSLIGDKAALTITGAQTEDEAIYFCALWYSNHWVFGGGTKLTVLG |
| 0.2 nM | 4.39 nM | 0.29 nM | no binding (tested: 0.1 to 100 ng/ml) | 0.329 nM | 0.000104 s⁻¹ | 316000 M⁻¹ s⁻¹ | 0.204 nM | 0.000175 s⁻¹ | 859000 M⁻¹ s⁻¹ | 29G5 (antibody, V domains shown) VH: QVTLKESGPGILQPSQTLSLTCSFSGFSLSTSDMGVDWIRQPSGKDLEWLAHIWWDDVKRYNPALKSRLTISKDTSSSQVFLMLASVDTADTATYYCARIVSSGYIYYALDYWGQGTSVTVSS VL: DIQMTQTASSLSASLGDRVTISCRASQDIRNYLNWYQRKPDGTVKLLIYYTSRLHSGVPSRFSGSGSGTDYSLTISNLEQEDIATYFCQQGNTLPLTFGGGTKLEIKR |
| 0.1 nM | 0.847 nM | 0.15 nM | no binding (tested: 0.1 to 100 ng/ml) | 0.124 nM | 9.59e-05 s⁻¹ | 770000 M⁻¹ s⁻¹ | 0.0639 nM | 0.000149 s⁻¹ | 2.33e+06 M⁻¹ s⁻¹ | 33C3 (antibody, V domains shown) VH: QVTLKESGPGILQPSQTLSLTCSFSGFSLSTSDLGVGWIRQPSGKGLEWLAHIWWDDVKRYNPALKSRLTISKDTSSSQVFLMIASVDTADTATYYCARIGSSGYIYYEMDYWGQGTSVTVSS VL: DIQMTQTTSSLSASLGDRVTITCRASQDIRNYLNWYQQKPDGTVKLLIYYTSRLHSGVPSRFSGSGSGTDYSLTISNLDQEDIATYFCQQGNTLPLTFGGGTRLEIKR |
